Assay results as given in patent US20220119490A1 (Genentech, published 2022).

What was measured:
[1] = biological target: T1, PTPRD extracellular domain (wild type) (human, UniProt P23468 21-1265); assay: SPR, ILRAPL1 (IL1RAPL1) ECD-Fc immobilized, PTPRD ectodomain-Fc as analyte
T1 construct: extracellular domain; Ectodomain-Fc in SPR; also called wt PTPRD; PTPRD ectodomain fused to an Fc tag
T1 sequence (looked up): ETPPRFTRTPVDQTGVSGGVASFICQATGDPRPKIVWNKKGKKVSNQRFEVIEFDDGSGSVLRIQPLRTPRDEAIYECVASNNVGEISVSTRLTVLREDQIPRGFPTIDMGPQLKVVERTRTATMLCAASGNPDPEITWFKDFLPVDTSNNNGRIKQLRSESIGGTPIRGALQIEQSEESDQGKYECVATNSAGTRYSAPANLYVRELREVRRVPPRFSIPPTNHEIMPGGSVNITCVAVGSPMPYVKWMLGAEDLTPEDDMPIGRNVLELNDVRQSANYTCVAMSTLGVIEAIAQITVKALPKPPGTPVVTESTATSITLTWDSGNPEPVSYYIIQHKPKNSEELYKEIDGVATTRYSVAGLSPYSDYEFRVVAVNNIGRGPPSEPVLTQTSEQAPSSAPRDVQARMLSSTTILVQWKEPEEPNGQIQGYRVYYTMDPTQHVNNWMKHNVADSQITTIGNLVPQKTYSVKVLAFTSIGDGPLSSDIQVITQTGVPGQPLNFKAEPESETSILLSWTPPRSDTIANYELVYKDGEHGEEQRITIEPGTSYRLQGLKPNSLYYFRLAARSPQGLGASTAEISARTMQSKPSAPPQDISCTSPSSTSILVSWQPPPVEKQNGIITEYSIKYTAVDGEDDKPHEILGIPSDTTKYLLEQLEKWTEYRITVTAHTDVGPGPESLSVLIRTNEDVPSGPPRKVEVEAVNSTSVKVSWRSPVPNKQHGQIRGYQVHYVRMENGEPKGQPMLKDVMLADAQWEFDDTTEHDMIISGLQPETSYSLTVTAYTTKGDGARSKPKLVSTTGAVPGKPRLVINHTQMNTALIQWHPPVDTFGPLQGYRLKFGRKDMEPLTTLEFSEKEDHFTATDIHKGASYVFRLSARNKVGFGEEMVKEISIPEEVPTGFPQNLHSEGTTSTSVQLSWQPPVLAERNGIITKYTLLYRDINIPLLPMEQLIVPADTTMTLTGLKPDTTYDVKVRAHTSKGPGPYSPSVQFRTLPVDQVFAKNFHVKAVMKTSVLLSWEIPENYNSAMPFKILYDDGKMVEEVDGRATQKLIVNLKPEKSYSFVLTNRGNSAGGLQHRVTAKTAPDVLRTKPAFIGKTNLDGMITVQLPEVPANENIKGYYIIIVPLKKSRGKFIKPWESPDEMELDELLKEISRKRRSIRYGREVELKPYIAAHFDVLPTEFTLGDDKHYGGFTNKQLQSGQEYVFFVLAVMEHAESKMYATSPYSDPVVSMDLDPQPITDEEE
Description: (§1) The indicated protein (expressed as an ECD-Fc fusion protein) was immobilized on a sensor chip and PTPRD (expressed as an ectodomain fused to an Fc tag) was injected at the indicated concentrations.

[2] = biological target: T1, PTPRD extracellular domain (wild type); assay: SPR, LRFN1 ECD-Fc immobilized, PTPRD ectodomain-Fc as analyte
Description: as §1

[3] = biological target: T1, PTPRD extracellular domain (wild type); assay: SPR, SLITRK1 ECD-Fc immobilized, PTPRD ectodomain-Fc as analyte
Description: as §1

[4] = biological target: T1, PTPRD extracellular domain (wild type); assay: SPR, SLITRK4 ECD-Fc immobilized, PTPRD ectodomain-Fc as analyte
Description: as §1

B1: IL1RAPL1 extracellular domain (receptor, human, UniProt Q9NZN1 19-357, looked up)
chain: LKVVTKRGSADGCTDWSIDIKKYQVLVGEPVRIKCALFYGYIRTNYSLAQSAGLSLMWYKSSGPGDFEEPIAFDGSRMSKEEDSIWFRPTLLQDSGLYACVIRNSTYCMKVSISLTVGENDTGLCYNSKMKYFEKAELSKSKEISCRDIEDFLLPTREPEILWYKECRTKTWRPSIVFKRDTLLIREVREDDIGNYTCELKYGGFVVRRTTELTVTAPLTDKPPKLLYPMESKLTIQETQLGDSANLTCRAFFGYSGDVSPLIYWMKGEKFIEDLDENRVWESDIRILKEHLGEQEVSISLIVDSVEEGDLGNYSCYVENGNGRRHASVLLHKRELMYT
notes: extracellular domain; ECD-Fc; also called ILRAPL1
binding result [1]: binds

B2: LRFN1 extracellular domain (receptor, human, UniProt Q9P244 32-536, looked up)
chain: QPCPGRCICQNVAPTLTMLCAKTGLLFVPPAIDRRVVELRLTDNFIAAVRRRDFANMTSLVHLTLSRNTIGQVAAGAFADLRALRALHLDSNRLAEVRGDQLRGLGNLRHLILGNNQIRRVESAAFDAFLSTVEDLDLSYNNLEALPWEAVGQMVNLNTLTLDHNLIDHIAEGTFVQLHKLVRLDMTSNRLHKLPPDGLFLRSQGTGPKPPTPLTVSFGGNPLHCNCELLWLRRLTREDDLETCATPEHLTDRYFWSIPEEEFLCEPPLITRQAGGRALVVEGQAVSLRCRAVGDPEPVVHWVAPDGRLLGNSSRTRVRGDGTLDVTITTLRDSGTFTCIASNAAGEATAPVEVCVVPLPLMAPPPAAPPPLTEPGSSDIATPGRPGANDSAAERRLVAAELTSNSVLIRWPAQRPVPGIRMYQVQYNSSVDDSLVYRMIPSTSQTFLVNDLAAGRAYDLCVLAVYDDGATALPATRVVGCVQFTTAGDPAPCRPLRAHFLGGTM
notes: extracellular domain; ECD-Fc; also called LFRN1
binding result [2]: binds

B3: SLITRK1 extracellular domain (receptor, human, UniProt Q96PX8 18-622, looked up)
chain: NVTGDVCKEKICSCNEIEGDLHVDCEKKGFTSLQRFTAPTSQFYHLFLHGNSLTRLFPNEFANFYNAVSLHMENNGLHEIVPGAFLGLQLVKRLHINNNKIKSFRKQTFLGLDDLEYLQADFNLLRDIDPGAFQDLNKLEVLILNDNLISTLPANVFQYVPITHLDLRGNRLKTLPYEEVLEQIPGIAEILLEDNPWDCTCDLLSLKEWLENIPKNALIGRVVCEAPTRLQGKDLNETTEQDLCPLKNRVDSSLPAPPAQEETFAPGPLPTPFKTNGQEDHATPGSAPNGGTKIPGNWQIKIRPTAAIATGSSRNKPLANSLPCPGGCSCDHIPGSGLKMNCNNRNVSSLADLKPKLSNVQELFLRDNKIHSIRKSHFVDYKNLILLDLGNNNIATVENNTFKNLLDLRWLYMDSNYLDTLSREKFAGLQNLEYLNVEYNAIQLILPGTFNAMPKLRILILNNNLLRSLPVDVFAGVSLSKLSLHNNYFMYLPVAGVLDQLTSIIQIDLHGNPWECSCTIVPFKQWAERLGSEVLMSDLKCETPVNFFRKDFMLLSNDEICPQLYARISPTLTSHSKNSTGLAETGTHSNSYLDTSRVSISVLVP
notes: extracellular domain; ECD-Fc
binding result [3]: binds

B4: SLITRK4 extracellular domain (receptor, human, UniProt Q8IW52 19-618, looked up)
chain: DSDISVEICNVCSCVSVENVLYVNCEKVSVYRPNQLKPPWSNFYHLNFQNNFLNILYPNTFLNFSHAVSLHLGNNKLQNIEGGAFLGLSALKQLHLNNNELKILRADTFLGIENLEYLQADYNLIKYIERGAFNKLHKLKVLILNDNLISFLPDNIFRFASLTHLDIRGNRIQKLPYIGVLEHIGRVVELQLEDNPWNCSCDLLPLKAWLENMPYNIYIGEAICETPSDLYGRLLKETNKQELCPMGTGSDFDVRILPPSQLENGYTTPNGHTTQTSLHRLVTKPPKTTNPSKISGIVAGKALSNRNLSQIVSYQTRVPPLTPCPAPCFCKTHPSDLGLSVNCQEKNIQSMSELIPKPLNAKKLHVNGNSIKDVDVSDFTDFEGLDLLHLGSNQITVIKGDVFHNLTNLRRLYLNGNQIERLYPEIFSGLHNLQYLYLEYNLIKEISAGTFDSMPNLQLLYLNNNLLKSLPVYIFSGAPLARLNLRNNKFMYLPVSGVLDQLQSLTQIDLEGNPWDCTCDLVALKLWVEKLSDGIVVKELKCETPVQFANIELKSLKNEILCPKLLNKPSAPFTSPAPAITFTTPLGPIRSPPGGPVPLS
notes: extracellular domain; ECD-Fc
binding result [4]: binds
